“And” between values parts separate entries of the source, which are not always exact repeats. Equal values may be shown once. Bridges are numbered along the chain shown (N, C = ends). Roman numbers before positions name the chains, in order. Where no end group is shown, it is not given here.
T1: Nrp1 (Nrp1-b1b2) / VEGF-A binding (Homo sapiens, UniProt O14786)
T1 sequence (O14786 274-586): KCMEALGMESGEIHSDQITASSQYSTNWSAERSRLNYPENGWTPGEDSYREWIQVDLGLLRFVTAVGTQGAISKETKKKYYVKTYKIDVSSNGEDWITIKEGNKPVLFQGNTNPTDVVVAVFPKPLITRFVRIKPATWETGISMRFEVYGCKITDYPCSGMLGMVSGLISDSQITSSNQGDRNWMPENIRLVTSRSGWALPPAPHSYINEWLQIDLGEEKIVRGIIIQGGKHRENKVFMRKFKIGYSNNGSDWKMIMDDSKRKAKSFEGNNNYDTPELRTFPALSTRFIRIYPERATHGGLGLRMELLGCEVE

T2: Nrp1-b1b2 (residue 274 to 586) (UniProt O14786 274-586)
T2 sequence (looked up): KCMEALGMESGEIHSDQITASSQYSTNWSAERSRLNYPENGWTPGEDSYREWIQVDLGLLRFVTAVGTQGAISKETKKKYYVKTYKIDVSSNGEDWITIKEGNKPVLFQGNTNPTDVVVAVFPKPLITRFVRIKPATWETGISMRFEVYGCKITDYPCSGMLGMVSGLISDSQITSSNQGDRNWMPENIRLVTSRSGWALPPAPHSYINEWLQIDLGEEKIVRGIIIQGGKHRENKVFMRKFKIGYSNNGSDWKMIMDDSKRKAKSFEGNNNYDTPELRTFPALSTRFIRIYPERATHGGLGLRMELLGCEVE


Tests used:
[1] = target: T1, Nrp1 (Nrp1-b1b2) / VEGF-A binding; assay: Plate-based inhibition of AP-VEGF-A binding to Nrp1; conditions: comparison of IC50 values, in words
[2] = target: T2, Nrp1-b1b2 (residue 274 to 586); assay: plate-based competition assay with alkaline phosphatase fused ligand

Row | Molecule | potency relative to C-furSema in inhibiting VEGF-A binding to Nrp1 [1] | IC50 [2]
1 | I: CQGYWRHVPPSPREAPGAPRSPEPDQKKPRNRR-OH / II: CQGYWRHVPPSPREAPGAPRSPEPDQKKPRNRR-OH (disulfide I:1-II:1) [ΔN-C-furSema] | approximately five-fold less potent | –
2 | Sema3A.3, furin processed variant of the Sema3A C-terminal domain (peptide) NTMDEFCEQVWKRDRKQRRQRPGHTPGNSNKWKHLQENKKGRNRRTHEFERAPR | – | 27 nM
3 | CQGYWRHVPPSPREAPGAPRSPEPDQKKPRNRR [ΔN-C-furSema] | – | 111 nM
4 | NTMDEFCEQVWKRDRKQR [Sema3A.1, shortest furin processed variant of the Sema3A C-terminal domain] | – | 1100 nM
5 | GLIHQYCQGYWRHVPPSPREAPGAPRSPEPDQKKPRNRR (also: homodimer) [furin-processed C-terminal domain of Sema3F (C-furSema), homodimeric] | – | 25 nM and 24 nM
6 | GLIHQYCQGYWRHVPPSPREAPGAPRSPEPDQKKPRNRA (also: homodimer, intermolecular disulfide Cys7-Cys7) [C-furSema R779A] | – | 4500 nM
7 | GLIHQYSQGYWRHVPPSPREAPGAPRSPEPDQKKPRNRR [monomeric C-furSema^Mon] | – | 1300 nM
8 | NTMDEFCEQVWKRDRKQRRQRPGHTPGNSNKWKHLQENKKGRNRR [Sema3A.2, furin processed variant of the Sema3A C-terminal domain] | – | 45 nM

From PMC3873856 (Biochemistry, 2013)
